A word on the stoichiometry N: it is the number of molecules, sites or subunits per partner or assembly.

The text below walks through data of paper PMC10257199.

Read-outs that look alike come from different tables or passages of the source.

In test [1] the target is MBP-Vpu fusion protein spin-labeled at residue Q36C (HIV-1). Description: DEER.
Test [2] shares this target. Description: DEER. The source holds these as a separate data set.
Test [3] shares this target. Description: DEER. The source holds these as a separate data set.
In test [4] the target is MBP-Vpu fusion protein (His8-MBP-linker-full-length HIV-1 Vpu, Q36C) (HIV-1). Description: SEC.
The target is the same in test [5]. Description: SEC. The source holds these as a separate data set.

For “MBP-Vpu fusion protein spin-labeled at residue Q36C”, the DEER modulation depth in test [1] amounted to 0.24; in test [2], 0.56. Besides, the figures for the stoichiometry N in test [1] and in test [3] were more than 3 and 5, respectively.
In the case of “MBP-Vpu fusion protein (His8-MBP-linker-full-length HIV-1 Vpu, Q36C)”, the stoichiometry N in test [4] and in test [5] was 5 in each case.
